This is an account of results in US20140087995A1 (published 2014).

Numbered stars: 1 amine (or outer) side, 2 acyl side, 3 side chain; on linkers, the order of the positions; unused ones are H or OH. Bridge positions count the residues as written; N and C are the ends. Side chains are listed from the residue outwards. Ends that are not written are not given here. * marks the point of attachment. C20 diacid = O=C(O)CCCCCCCCCCCCCCCCCCC(=O)*; C18 diacid = O=C(O)CCCCCCCCCCCCCCCCC(=O)*; γGlu = O=C(O)[C@H](CCC(=O)[*:2])N[*:1]; AEEA = NCCOCCOCC(=O)O

The target in experiment [1] is T1, human calcitonin receptor (human, UniProt P30988 25-474).
T1 construct: whole, on cells; Assayed as cell membranes of BHK tk'ts 13 cells stably transfected with the human calcitonin receptor (Assay VII); also called hCTR; hCT
T1 sequence (looked up): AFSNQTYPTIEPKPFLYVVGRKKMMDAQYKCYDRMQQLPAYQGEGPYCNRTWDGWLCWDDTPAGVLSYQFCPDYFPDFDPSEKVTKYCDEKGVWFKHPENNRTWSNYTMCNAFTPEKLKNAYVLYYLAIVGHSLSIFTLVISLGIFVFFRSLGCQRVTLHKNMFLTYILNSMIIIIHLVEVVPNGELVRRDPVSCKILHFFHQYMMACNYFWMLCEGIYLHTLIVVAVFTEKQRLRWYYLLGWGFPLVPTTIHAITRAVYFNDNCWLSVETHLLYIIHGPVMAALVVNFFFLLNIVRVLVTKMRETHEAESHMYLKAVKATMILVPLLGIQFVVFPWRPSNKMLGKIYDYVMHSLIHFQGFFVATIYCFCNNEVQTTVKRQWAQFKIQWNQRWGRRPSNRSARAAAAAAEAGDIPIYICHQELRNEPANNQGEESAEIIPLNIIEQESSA
Nature of the experiment: SPA competition vs 125I-calcitonin, membranes of BHK cells with human calcitonin receptor (Assay VII). As to the method: Membranes were prepared in the following way; the cells were rinsed with PBS and incubated with Versene for approximately 5 min before harvesting. The cells were flushed with PBS and the cell-suspension was centrifuged for 5 min at 1000 rpm. Cells were homogenized (Ultrathurrax) in a buffer containing 20 mM Na-HEPES and 10 mM EDTA (pH 7.4) and centrifuged at 20.000 rpm for 15 min. The resulting pellet was resuspended, homogenized and centrifuged (20.000 rpm, 15 min) in a buffer containing 20 mM Na-HEPES and 0.1 mM EDTA (pH 7.4, buffer 2). The resulting pellet was resuspended in buffer 2 and protein concentration was measured (BCA protein Assay, Pierce). The homogenate was kept cold during the whole procedure. The membranes were kept at −80° C. until use. Assay was performed in a 384 well Optiplate (PerkinElmer) in a total volume of 40 ul. Membranes were mixed with SPA beads. Final concentration of membranes 35 ng/μL final and Final concentration of SPA beads was 0.05 mg/well. Test-compounds were dissolved in DMSO and further diluted in assay buffer (50 mM Hepes, pH 7.4, 1 mM CaCl2, 5 mM MgCl₂, 0.1% OA and 0.02% Tween20). […] The final mixture was incubated for 120 min with shaking at 400 rpm at 25° C. prior to centrifugation (1500 rpm, 10 min). Samples were analyzed on TopCounter™ (Packard). The […] was calculated using (one site binding competition analysis) GraphPad Prism5 as a measure of receptor affinity.

For experiment [2], the target named is T1, human calcitonin receptor. Nature of the experiment: IC50 at hCTR divided by IC50 at hAmylin-R (SPA competition assays V and VII). Here is the method:
The resulting pellet was resuspended, homogenized and centrifuged (20.000 rpm, 15 min) in a buffer containing 20 mM Na-HEPES and 0.1 mM EDTA (pH 7.4, buffer 2). The resulting pellet was resuspended in buffer 2 and protein concentration was measured (BCA protein Assay, Pierce). The homogenate was kept cold during the whole procedure. The membranes were kept at −80° C. until use. The assay was performed in a 384 well Optiplate (PerkinElmer) in a total volume of 40 ul. Membranes were mixed with SPA beads. Final concentration of membranes 35 ng/μL final and SPA beads was 0.05 mg/well. Test-compounds were dissolved in DMSO and further diluted in assay buffer (50 mM Hepes, pH 7.4, 1 mM CaCl2, 5 mM MgCl₂, 0.1% OA and 0.02% Tween20). […] The final mixture was incubated with shaking at 400 rpm for 120 min at 25° C. prior to centrifugation (1500 rpm, 10 min). Samples were analyzed on TopCounter™ (Packard). The IC₅₀ was calculated using (one site binding competition analysis) GraphPad Prism5 as a measure of receptor affinity.
Membranes were prepared in the following way; the cells were rinsed with PBS and incubated with Versene for approximately 5 min before harvesting. The cells were flushed with PBS and the cell-suspension was centrifuged for 5 min at 1000 rpm. Cells were homogenized (Ultrathurrax) in a buffer containing 20 mM Na-HEPES and 10 mM EDTA (pH 7.4) and centrifuged at 20.000 rpm for 15 min. The resulting pellet was resuspended, homogenized and centrifuged (20.000 rpm, 15 min) in a buffer containing 20 mM Na-HEPES and 0.1 mM EDTA (pH 7.4, buffer 2). The resulting pellet was resuspended in buffer 2 and protein concentration was measured (BCA protein Assay, Pierce). The homogenate was kept cold during the whole procedure. The membranes were kept at −80° C. until use. Assay was performed in a 384 well Optiplate (PerkinElmer) in a total volume of 40 ul. Membranes were mixed with SPA beads.

In experiment [3] the target is T2, human calcitonin receptor (human, UniProt P30988 25-474).
T2 construct: whole, on cells; also called hCTR; hCT
T2 sequence (looked up): T1 sequence (looked up)
The experiment is described as follows: ratio of IC50 at human calcitonin receptor to IC50 at human amylin receptor (SPA competition assays). The essentials: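 Competition binding by SPA with cell membranes (35 ng/μL) and SPA beads in 50 mM Hepes pH 7.4 with 1 mM CaCl2, 5 mM MgCl2, 0.1% OA and 0.02% Tween20. Incubated 120 min at 25 °C with shaking, then counted.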

The target in experiment [4] is T2, human calcitonin receptor. The experiment is described as follows: SPA radioligand competition (125I-calcitonin), membranes of BHK cells with human calcitonin receptor. The essentials: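 BHK hCTR membranes 35 ng/μL + SPA beads 0.05 mg/well; buffer 50 mM Hepes pH 7.4, 1 mM CaCl2, 5 mM MgCl₂, 0.1% OA, 0.02% Tween20. 120 min, 25° C., shaking. Scintillation count; IC50 by one-site binding competition.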

Usually IC50 stands for the concentration that inhibits the measured activity by half.

B1: N^ε1-[2-[2-[2-[[(4S)-4-carboxy-4-(19-carboxynonadecanoylamino)butanoyl]amino]ethoxy]ethoxy]acetyl]-[His14,Arg17,Pro21,Pro27]-h-amylin (peptide)
peptide: K([AEEA-γGlu-C20 diacid])CNTATCATQRLAHFLRHSSPNFGAIPSSTNVGSNTY-NH2
modifications: disulfide 2-7; N-terminus assumed
SMILES: CC[C@H](C)[C@H](NC(=O)[C@H](C)NC(=O)CNC(=O)[C@H](Cc1ccccc1)NC(=O)[C@H](CC(N)=O)NC(=O)[C@@H]1CCCN1C(=O)[C@H](CO)NC(=O)[C@H](CO)NC(=O)[C@H](Cc1c[nH]cn1)NC(=O)[C@H](CCCNC(=N)N)NC(=O)[C@H](CC(C)C)NC(=O)[C@H](Cc1ccccc1)NC(=O)[C@H](Cc1c[nH]cn1)NC(=O)[C@H](C)NC(=O)[C@H](CC(C)C)NC(=O)[C@H](CCCNC(=N)N)NC(=O)[C@H](CCC(N)=O)NC(=O)[C@@H](NC(=O)[C@H](C)NC(=O)[C@@H]1CSSC[C@H](NC(=O)[C@@H](N)CCCCNC(=O)COCCOCCNC(=O)CC[C@H](NC(=O)CCCCCCCCCCCCCCCCCCC(=O)O)C(=O)O)C(=O)N[C@@H](CC(N)=O)C(=O)N[C@@H]([C@@H](C)O)C(=O)N[C@@H](C)C(=O)N[C@@H]([C@@H](C)O)C(=O)N1)[C@@H](C)O)C(=O)N1CCC[C@H]1C(=O)N[C@@H](CO)C(=O)N[C@@H](CO)C(=O)N[C@H](C(=O)N[C@@H](CC(N)=O)C(=O)N[C@H](C(=O)NCC(=O)N[C@@H](CO)C(=O)N[C@@H](CC(N)=O)C(=O)N[C@H](C(=O)N[C@@H](Cc1ccc(O)cc1)C(N)=O)[C@@H](C)O)C(C)C)[C@@H](C)O
notes: also called compound 69
As to B1, the IC50 in experiment [1] turned out to be 8.68 nM. Besides, the “Ratio hCT/hAmylin binding” value in experiment [2] turned out to be 65.3.

B2: N^ε1-[2-[2-[2-(19-carboxynonadecanoylamino)ethoxy]ethoxy]acetyl]-[Arg17,Pro21,Pro27,His34]-h-amylin (peptide)
peptide: K([AEEA-C20 diacid])CNTATCATQRLANFLRHSSPNFGAIPSSTNVGHNTY-NH2
modifications: disulfide 2-7; N-terminus assumed
SMILES: CC[C@H](C)[C@H](NC(=O)[C@H](C)NC(=O)CNC(=O)[C@H](Cc1ccccc1)NC(=O)[C@H](CC(N)=O)NC(=O)[C@@H]1CCCN1C(=O)[C@H](CO)NC(=O)[C@H](CO)NC(=O)[C@H](Cc1c[nH]cn1)NC(=O)[C@H](CCCNC(=N)N)NC(=O)[C@H](CC(C)C)NC(=O)[C@H](Cc1ccccc1)NC(=O)[C@H](CC(N)=O)NC(=O)[C@H](C)NC(=O)[C@H](CC(C)C)NC(=O)[C@H](CCCNC(=N)N)NC(=O)[C@H](CCC(N)=O)NC(=O)[C@@H](NC(=O)[C@H](C)NC(=O)[C@@H]1CSSC[C@H](NC(=O)[C@@H](N)CCCCNC(=O)COCCOCCNC(=O)CCCCCCCCCCCCCCCCCCC(=O)O)C(=O)N[C@@H](CC(N)=O)C(=O)N[C@@H]([C@@H](C)O)C(=O)N[C@@H](C)C(=O)N[C@@H]([C@@H](C)O)C(=O)N1)[C@@H](C)O)C(=O)N1CCC[C@H]1C(=O)N[C@@H](CO)C(=O)N[C@@H](CO)C(=O)N[C@H](C(=O)N[C@@H](CC(N)=O)C(=O)N[C@H](C(=O)NCC(=O)N[C@@H](Cc1c[nH]cn1)C(=O)N[C@@H](CC(N)=O)C(=O)N[C@H](C(=O)N[C@@H](Cc1ccc(O)cc1)C(N)=O)[C@@H](C)O)C(C)C)[C@@H](C)O
notes: also called compound 91
For B2, the 50% inhibitory concentration (IC50) in experiment [1] was determined as 12 nM. Besides, the “Ratio hCT/hAmylin binding” value in experiment [2] amounted to 101.

B3: N^ε1-[(4S)-4-carboxy-4-[[(4S)-4-carboxy-4-(19-carboxynonadecanoylamino)butanoyl]amino]butanoyl]-[Asp14,Arg17,Pro21,Pro27,Arg35]-h-amylin (peptide)
peptide: K([γGlu-γGlu-C20 diacid])CNTATCATQRLADFLRHSSPNFGAIPSSTNVGSRTY-NH2
modifications: disulfide 2-7; N-terminus assumed
SMILES: CC[C@H](C)[C@H](NC(=O)[C@H](C)NC(=O)CNC(=O)[C@H](Cc1ccccc1)NC(=O)[C@H](CC(N)=O)NC(=O)[C@@H]1CCCN1C(=O)[C@H](CO)NC(=O)[C@H](CO)NC(=O)[C@H](Cc1c[nH]cn1)NC(=O)[C@H](CCCNC(=N)N)NC(=O)[C@H](CC(C)C)NC(=O)[C@H](Cc1ccccc1)NC(=O)[C@H](CC(=O)O)NC(=O)[C@H](C)NC(=O)[C@H](CC(C)C)NC(=O)[C@H](CCCNC(=N)N)NC(=O)[C@H](CCC(N)=O)NC(=O)[C@@H](NC(=O)[C@H](C)NC(=O)[C@@H]1CSSC[C@H](NC(=O)[C@@H](N)CCCCNC(=O)CC[C@H](NC(=O)CC[C@H](NC(=O)CCCCCCCCCCCCCCCCCCC(=O)O)C(=O)O)C(=O)O)C(=O)N[C@@H](CC(N)=O)C(=O)N[C@@H]([C@@H](C)O)C(=O)N[C@@H](C)C(=O)N[C@@H]([C@@H](C)O)C(=O)N1)[C@@H](C)O)C(=O)N1CCC[C@H]1C(=O)N[C@@H](CO)C(=O)N[C@@H](CO)C(=O)N[C@H](C(=O)N[C@@H](CC(N)=O)C(=O)N[C@H](C(=O)NCC(=O)N[C@@H](CO)C(=O)N[C@@H](CCCNC(=N)N)C(=O)N[C@H](C(=O)N[C@@H](Cc1ccc(O)cc1)C(N)=O)[C@@H](C)O)C(C)C)[C@@H](C)O
notes: also called compound 52
As for B3, the IC50 in experiment [1] is 56.9 nM.

B4: N^ε1-[(4S)-4-carboxy-4-(17-carboxyheptadecanoylamino)butanoyl]-[Arg17,Pro21,Pro27,His34]-h-amylin (peptide)
peptide: K([γGlu-C18 diacid])CNTATCATQRLANFLRHSSPNFGAIPSSTNVGHNTY-NH2
modifications: disulfide 2-7; N-terminus assumed
SMILES: CC[C@H](C)[C@H](NC(=O)[C@H](C)NC(=O)CNC(=O)[C@H](Cc1ccccc1)NC(=O)[C@H](CC(N)=O)NC(=O)[C@@H]1CCCN1C(=O)[C@H](CO)NC(=O)[C@H](CO)NC(=O)[C@H](Cc1c[nH]cn1)NC(=O)[C@H](CCCNC(=N)N)NC(=O)[C@H](CC(C)C)NC(=O)[C@H](Cc1ccccc1)NC(=O)[C@H](CC(N)=O)NC(=O)[C@H](C)NC(=O)[C@H](CC(C)C)NC(=O)[C@H](CCCNC(=N)N)NC(=O)[C@H](CCC(N)=O)NC(=O)[C@@H](NC(=O)[C@H](C)NC(=O)[C@@H]1CSSC[C@H](NC(=O)[C@@H](N)CCCCNC(=O)CC[C@H](NC(=O)CCCCCCCCCCCCCCCCC(=O)O)C(=O)O)C(=O)N[C@@H](CC(N)=O)C(=O)N[C@@H]([C@@H](C)O)C(=O)N[C@@H](C)C(=O)N[C@@H]([C@@H](C)O)C(=O)N1)[C@@H](C)O)C(=O)N1CCC[C@H]1C(=O)N[C@@H](CO)C(=O)N[C@@H](CO)C(=O)N[C@H](C(=O)N[C@@H](CC(N)=O)C(=O)N[C@H](C(=O)NCC(=O)N[C@@H](Cc1c[nH]cn1)C(=O)N[C@@H](CC(N)=O)C(=O)N[C@H](C(=O)N[C@@H](Cc1ccc(O)cc1)C(N)=O)[C@@H](C)O)C(C)C)[C@@H](C)O
As to B4, the “Ratio hCT/hAmylin binding” value in experiment [3] was determined as 59.4. In experiment [4], the concentration for half-maximal inhibition (IC50) is 22.7 nM.
